Target: recombinant JNK1α1 (UniProt P45983-2 1-384)
Test: cell-based or functional assay

Sequence of recombinant JNK1α1 (P45983 other isoform, or with tags, fused parts or gaps limits assumed): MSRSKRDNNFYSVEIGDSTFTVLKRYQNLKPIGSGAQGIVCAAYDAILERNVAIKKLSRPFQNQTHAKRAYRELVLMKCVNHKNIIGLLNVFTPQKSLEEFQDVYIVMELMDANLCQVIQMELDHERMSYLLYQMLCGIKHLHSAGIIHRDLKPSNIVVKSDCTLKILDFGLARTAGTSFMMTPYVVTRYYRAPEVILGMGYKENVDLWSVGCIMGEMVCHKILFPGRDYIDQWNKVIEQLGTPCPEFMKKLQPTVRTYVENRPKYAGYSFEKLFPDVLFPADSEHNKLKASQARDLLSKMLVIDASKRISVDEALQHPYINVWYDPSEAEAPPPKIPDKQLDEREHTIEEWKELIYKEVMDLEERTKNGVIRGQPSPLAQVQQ

RPKRPTTLNLFPQVPRSQDT [L-JBD20 peptide (20 amino acid minimal JNK-inhibitory sequence of JIP-IB1)]
~1000 nM: IC50, phosphorylation of the JNK target ATF2 | IC50, phosphorylation of the JNK target IRS-1 | IC50, phosphorylation of the JNK target MADD | IC50, phosphorylation of the JNK target bcl-xl

Source: patent publication US20040082509A1 (XIGEN S A, published 2004)
